Positions count from the first letter of the chain named.

Here are results for five molecules from paper PMC4537280, “ApiAP2 Factors as Candidate Regulators of Stochastic Commitment to Merozoite Production in Theileria annulata”.

What all share (conditions): protein: recombinant; tags: N-terminal GST (pGEX5x-2); label: 5' biotin on strand 1; blunt
The target of data set [1] is GST-TA11145D (TaAP2.me1 AP2 domain) (Theileria annulata (strain Ankara, …, UniProt Q4U8H9)). The data set can be described thus: EMSA; LightShift chemiluminescent EMSA kit components plus 1 ul 50% glycerol and 1 ul 1% NP40, about 0.7 ug GST fusion protein, 20 fmol biotinylated probe; competitor preincubation on ice; 4% polyacrylamide gel, 100 V, 4 C; pH and salt of binding not stated (oligo annealing in 20 mM Tris-HCl pH 7.6, 50 mM NaCl). (In general: A gel shift assay detects complexes by their altered migration in electrophoresis.)

Data set [2] has as its target GST-TA13515D (TaAP2.g AP2 domain) (Theileria annulata (strain Ankara, …, UniProt Q4UEK3)). Described as above.
For data set [3], the target named is T1, GST-TA16485D (TaAP2.me3 AP2 domain) (Theileria annulata (strain Ankara, …, UniProt Q4UIX2)).
T1 sequence: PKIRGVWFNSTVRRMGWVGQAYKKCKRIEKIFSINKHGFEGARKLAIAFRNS
The description is as above.

In data set [4] the target is T2, GST-TA12015D (TaAP2.me2 AP2 domain) (Theileria annulata (strain Ankara, …, UniProt Q4UDT1)).
T2 sequence: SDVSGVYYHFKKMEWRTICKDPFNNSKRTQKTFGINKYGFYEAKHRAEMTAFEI
Kind of data set: EMSA; 0.6-1.6 ug protein; LightShift chemiluminescent EMSA kit components plus 1 ul 50% glycerol and 1 ul 1% NP40, about 0.7 ug GST fusion protein, 20 fmol biotinylated probe; competitor preincubation on ice; 4% polyacrylamide gel, 100 V, 4 C; pH and salt of binding not stated (oligo annealing in 20 mM Tris-HCl pH 7.6, 50 mM NaCl).

B1: Bio-2x(A)CACAC(A) (dsDNA)
DNA 1: GATACACACTTATGCACACACA
DNA 2: TGTGTGTGCATAAGTGTGTATC
Regarding B1, in data set [1], the binding result is “binds”.

B2: Bio(A)CACAC(A)-MUT (dsDNA)
DNA 1: GATATAGAATTATGCAGAATAT
DNA 2: ATATTCTGCATAATTCTATATC
On to B2, for which the binding result in data set [1] is reported as “no binding”.

B3: Bio-GTGTAC (dsDNA)
DNA 1: AATATTATAATAGTCGTAGCCATCAATGTGTACACATGGTAATATAGATTTTCGTTTATATT
DNA 2: AATATAAACGAAAATCTATATTACCATGTGTACACATTGATGGCTACGACTATTATAATATT
As to B3, the binding result in data set [2] is “binds”.

B4: Bio-GTGTAC-MUT (dsDNA)
DNA 1: B3 DNA 1 with G28A, G30A, C33A, C35A
DNA 2: B3 DNA 2 with G28T, G30T, C33T, C35T
Consider B4, for which the binding result in data set [2] is reported as “no binding”.

B5: Bio-TCTATA / C-box probe (dsDNA)
DNA 1: ATTGTTAATTCCCCATCCAGATCTATAAAA
DNA 2: TTTTATAGATCTGGATGGGGAATTAACAAT
Take B5: the binding result in data set [3] was “binds”; in data set [4] it was “no binding”.
